US20180194862A1 (AbbVie / Abbott, published 2018)
Where two headings read alike, the source gives them in different places. One block for each binder: values may come before it.

Legend:
[1] = target: human CD40 on cells (HEK293 stable transfectants, HEK-Blue CD40 cells, human B cells, monocytic cells, … (human, UniProt P25942 21-277)); assay: cell-based or functional assay
[2] = target: T1, soluble form of the extracellular domain of human CD40 (Creative BioMart) (human, UniProt P25942 21-193); assay: SPR
T1 construct: Bought

[3] = target: T2, human mesothelin (human, UniProt Q13421 296-580, limits assumed); assay: SPR
T2 construct: also called Human MSLN

[4] = target: T3, soluble form of the extracellular domain of cynomolgus (cyno) CD40 (Creative BioMart) (cynomolgus, UniProt G7PG38 21-193); assay: SPR
T3 construct: extracellular domain; also called Cynomolgus CD40

[5] = target: T4, human 4-1BB (human, UniProt Q07011 24-186); assay: SPR (Biacore)
T4 construct: SPR (Biacore) analyte; also called hu4-1BB

[6] = target: T4, human 4-1BB; assay: SPR
[7] = target: T5, mouse 4-1BB (mouse, UniProt P20334 24-187); assay: SPR
T5 construct: also called mu4-1BB; murine 4-1BB
T5 sequence (looked up): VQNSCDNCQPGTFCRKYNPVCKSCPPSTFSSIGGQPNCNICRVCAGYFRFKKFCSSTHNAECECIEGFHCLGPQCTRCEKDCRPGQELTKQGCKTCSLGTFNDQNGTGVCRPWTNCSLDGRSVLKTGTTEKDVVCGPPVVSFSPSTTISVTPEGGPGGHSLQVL

[8] = target: T4, human 4-1BB; assay: SPR; remark: listed apart in the source
[9] = target: T5, mouse 4-1BB; assay: SPR; remark: listed apart in the source
[10] = target: T6, cynomolgus 4-1BB (cynomolgus, UniProt A9YYE7 24-186); assay: SPR
T6 sequence: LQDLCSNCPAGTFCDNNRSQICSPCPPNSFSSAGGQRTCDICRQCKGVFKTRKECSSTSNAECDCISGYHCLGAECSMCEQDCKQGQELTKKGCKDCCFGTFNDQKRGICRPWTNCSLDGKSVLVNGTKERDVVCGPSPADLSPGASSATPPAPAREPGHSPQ

[11] = target: T5, mouse 4-1BB; assay: SPR (Biacore)

human CD40 on cells (HEK293 stable transfectants, HEK-Blue CD40 cells, human B cells, monocytic cells, …, sequence (P25942 21-277 limits assumed): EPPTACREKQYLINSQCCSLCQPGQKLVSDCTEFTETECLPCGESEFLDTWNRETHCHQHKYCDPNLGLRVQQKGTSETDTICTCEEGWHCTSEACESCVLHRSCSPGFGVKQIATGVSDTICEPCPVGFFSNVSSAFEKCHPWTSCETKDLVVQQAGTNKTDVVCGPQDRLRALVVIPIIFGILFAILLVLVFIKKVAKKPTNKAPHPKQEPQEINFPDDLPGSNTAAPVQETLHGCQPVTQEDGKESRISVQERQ
T2 sequence (Q13421 other isoform, or with tags, fused parts or gaps limits assumed): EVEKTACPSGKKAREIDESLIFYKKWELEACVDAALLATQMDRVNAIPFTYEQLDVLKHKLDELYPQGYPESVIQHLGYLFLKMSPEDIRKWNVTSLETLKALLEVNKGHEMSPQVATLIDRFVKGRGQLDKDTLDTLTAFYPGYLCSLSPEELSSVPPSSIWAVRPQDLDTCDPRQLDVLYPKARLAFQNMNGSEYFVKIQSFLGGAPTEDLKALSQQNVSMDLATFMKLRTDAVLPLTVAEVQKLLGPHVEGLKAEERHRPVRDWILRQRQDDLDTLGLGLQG
T1 sequence (P25942 21-193 limits assumed): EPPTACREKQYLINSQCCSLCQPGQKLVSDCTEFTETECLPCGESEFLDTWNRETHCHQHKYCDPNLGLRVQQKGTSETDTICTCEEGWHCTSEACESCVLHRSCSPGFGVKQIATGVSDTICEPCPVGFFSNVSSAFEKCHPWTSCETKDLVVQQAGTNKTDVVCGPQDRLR

B1: CF4 (bispecific antibody, human IgG1, lambda)
heavy: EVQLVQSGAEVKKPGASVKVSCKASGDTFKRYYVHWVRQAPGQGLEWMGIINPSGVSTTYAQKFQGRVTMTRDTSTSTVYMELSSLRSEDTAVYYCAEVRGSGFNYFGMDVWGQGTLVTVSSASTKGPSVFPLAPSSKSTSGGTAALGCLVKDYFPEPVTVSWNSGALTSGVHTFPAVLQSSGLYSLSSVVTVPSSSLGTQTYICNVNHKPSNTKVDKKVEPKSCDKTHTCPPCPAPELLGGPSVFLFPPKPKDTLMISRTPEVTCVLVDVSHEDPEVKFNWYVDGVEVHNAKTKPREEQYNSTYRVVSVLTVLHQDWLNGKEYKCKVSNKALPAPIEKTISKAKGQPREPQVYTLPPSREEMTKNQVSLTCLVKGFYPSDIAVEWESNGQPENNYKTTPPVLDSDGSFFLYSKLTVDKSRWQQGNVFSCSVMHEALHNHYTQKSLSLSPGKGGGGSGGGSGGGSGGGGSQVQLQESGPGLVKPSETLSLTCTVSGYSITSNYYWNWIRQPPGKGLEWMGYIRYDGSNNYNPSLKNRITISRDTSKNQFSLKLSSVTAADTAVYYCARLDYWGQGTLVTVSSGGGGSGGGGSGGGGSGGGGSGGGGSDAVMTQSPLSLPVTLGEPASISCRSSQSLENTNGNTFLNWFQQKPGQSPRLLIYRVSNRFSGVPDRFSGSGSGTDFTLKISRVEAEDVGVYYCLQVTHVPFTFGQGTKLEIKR
light: SYELTQPPSVSVSPGQTASITCSGDKLGDKYASWYQQKPGQSPVLVIYQDNRRPSGIPERFSGSNSGNTATLTISGTQAMDEADYYCQAWDSDTYVFGTGTKVTVLGQPKAAPSVTLFPPSSEELQANKATLVCLISDFYPGAVTVAWKADSSPVKAGVETTTPSKQSNNKYAASSYLSLTPEQWKSHRSYSCQVTHEGSTVEKTVAPTECS
Max. IL-12p70, dendritic cells with cell-surface mesothelin [1]: 50 pg/mL

B2: CF9 (bispecific antibody, human IgG1, lambda)
heavy: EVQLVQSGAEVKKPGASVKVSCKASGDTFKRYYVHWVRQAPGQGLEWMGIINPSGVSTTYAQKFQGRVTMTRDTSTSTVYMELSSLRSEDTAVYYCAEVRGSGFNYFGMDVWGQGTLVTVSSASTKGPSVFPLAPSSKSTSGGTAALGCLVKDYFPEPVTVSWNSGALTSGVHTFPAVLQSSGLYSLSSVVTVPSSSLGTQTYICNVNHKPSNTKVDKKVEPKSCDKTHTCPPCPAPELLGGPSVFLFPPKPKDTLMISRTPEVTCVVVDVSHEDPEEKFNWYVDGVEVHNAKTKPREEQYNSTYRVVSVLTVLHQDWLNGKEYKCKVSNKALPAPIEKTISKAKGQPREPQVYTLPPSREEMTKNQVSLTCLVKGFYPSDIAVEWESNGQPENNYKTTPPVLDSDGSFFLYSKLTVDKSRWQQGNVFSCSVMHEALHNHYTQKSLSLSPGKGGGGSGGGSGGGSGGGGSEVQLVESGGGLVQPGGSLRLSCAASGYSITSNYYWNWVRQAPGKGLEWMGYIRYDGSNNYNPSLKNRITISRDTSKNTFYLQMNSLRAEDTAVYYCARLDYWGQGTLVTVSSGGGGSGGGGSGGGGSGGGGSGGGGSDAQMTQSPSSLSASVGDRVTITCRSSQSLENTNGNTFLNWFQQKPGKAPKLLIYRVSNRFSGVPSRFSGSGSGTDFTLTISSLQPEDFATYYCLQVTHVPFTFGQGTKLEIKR
light: SYELTQPPSVSVSPGQTASITCSGDKLGDKYASWYQQKPGQSPVLVIYQDNRRPSGIPERFSGSNSGNTATLTISGTQAMDEADYYCQAWDSDTYVFGTGTKVTVLGQPKAAPSVTLFPPSSEELQANKATLVCLISDFYPGAVTVAWKADSSPVKAGVETTTPSKQSNNKYAASSYLSLTPEQWKSHRSYSCQVTHEGSTVEKTVAPTECS
Max. IL-12p70, dendritic cells with cell-surface mesothelin [1]: 120 pg/mL

B3: CF5 (bispecific antibody, human IgG1, lambda)
heavy: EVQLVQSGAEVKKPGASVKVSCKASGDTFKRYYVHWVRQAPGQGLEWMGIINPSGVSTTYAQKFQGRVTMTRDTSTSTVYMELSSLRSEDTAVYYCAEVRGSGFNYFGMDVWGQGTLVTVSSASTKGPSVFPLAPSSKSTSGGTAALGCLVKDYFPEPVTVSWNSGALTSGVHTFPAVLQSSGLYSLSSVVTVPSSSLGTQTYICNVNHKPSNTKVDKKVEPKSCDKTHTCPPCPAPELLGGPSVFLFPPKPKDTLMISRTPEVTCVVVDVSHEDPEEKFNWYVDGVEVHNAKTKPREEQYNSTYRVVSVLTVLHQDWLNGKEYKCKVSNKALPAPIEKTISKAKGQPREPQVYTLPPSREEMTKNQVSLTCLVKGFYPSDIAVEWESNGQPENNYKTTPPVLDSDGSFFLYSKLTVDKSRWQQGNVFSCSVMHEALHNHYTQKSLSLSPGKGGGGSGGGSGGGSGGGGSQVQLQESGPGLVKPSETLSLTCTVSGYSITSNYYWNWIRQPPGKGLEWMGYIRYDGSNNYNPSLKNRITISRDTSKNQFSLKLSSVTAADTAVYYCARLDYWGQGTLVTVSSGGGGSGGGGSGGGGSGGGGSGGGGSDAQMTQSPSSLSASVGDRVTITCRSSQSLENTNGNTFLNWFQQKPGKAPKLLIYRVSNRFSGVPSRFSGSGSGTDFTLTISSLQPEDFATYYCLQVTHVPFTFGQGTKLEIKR
light: SYELTQPPSVSVSPGQTASITCSGDKLGDKYASWYQQKPGQSPVLVIYQDNRRPSGIPERFSGSNSGNTATLTISGTQAMDEADYYCQAWDSDTYVFGTGTKVTVLGQPKAAPSVTLFPPSSEELQANKATLVCLISDFYPGAVTVAWKADSSPVKAGVETTTPSKQSNNKYAASSYLSLTPEQWKSHRSYSCQVTHEGSTVEKTVAPTECS
Max. IL-12p70, dendritic cells with cell-surface mesothelin [1]: 60 pg/mL

B5: V6-8 (bispecific antibody)
chain 1: EVQLQESGPGLVKPSETLSLTCTVSGYSITSNYYWNWIRQPPGKGLEWMGYIRYDGSNNYNPSLKNRVTISRDTSKNQFSLKLSSVTAADTAVYYCARLDYWGQGTTVTVSS
chain 2: DAQMTQSPSSLSASVGDRVTITCRSSQSLENTNGNTFLNWFQQKPGKAPKLLIYRVSNRFSGVPSRFSGSGSGTDFTLTISSLQPEDFATYYCLQVTHVPFTFGQGTKLEIK
chain 3: EVQLLESGGGLVQPGGSLRLSCAASGFTFSSYAMSWVRQAPGKGLEWVSAISGGGGRTYYADSVKGRFTISRDNSKNTLYLQMNSLRAEDTAVYYCAREEMAFRAYRFDIWGQGTLVTVSS
chain 4: not shown
Kd [2]: 14 nM
koff [2]: 0.014 s⁻¹
kon [2]: 970000 M⁻¹ s⁻¹
Kd [3]: 11 nM
koff [3]: 0.0015 s⁻¹
kon [3]: 130000 M⁻¹ s⁻¹
Kd [4]: 11 nM
koff [4]: 0.013 s⁻¹
kon [4]: 1.3e+06 M⁻¹ s⁻¹

B6: TABBY1.1-mIgG1 (antibody, V domains shown)
VH: EVQLVESGGDLVKPGGSQKLSCAASGFTFSSYGMSWVRQTPDRRLEWVAAIISGGSYTYYPDSVKGRFTISRDNAKNTLYLQMNSLKSEDTAMYYCARHGGYDGNYDYYAMDYWGQGTSVTVSS
VL: DVLMTQTPLSLPVSLGDQASISCRSSQSIVDSDGITYLEWYLQKPGQSPKLLIYKVSNRFSGVPDRFSGSGSGTDFTLRISRVEAEDLGLYYCFQVSHVPWTFGGGTKLEIK
notes: mouse IgG1
Kd [5]: 2 nM

B8: TABBY5-mIgG2b (antibody, V domains shown)
VH: EVQLQQSGAELVRPGASVKLSCTASGFNIKDYYMHWVKQRPEQGLEWIGRIDPEDGDTEYVPKFQGKATMTADTSSNTAYLQLSSLTSEDTAVYYCTPYSNYVYWYFDVWGTGTTVTVSS
VL: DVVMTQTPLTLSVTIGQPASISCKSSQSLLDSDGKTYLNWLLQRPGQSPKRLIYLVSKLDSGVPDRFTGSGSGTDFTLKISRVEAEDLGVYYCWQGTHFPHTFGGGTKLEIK
notes: mouse IgG2b
Kd [5]: 0.3 nM

B11: hu107-1 (antibody, V domains shown)
VH: EVQLVQSGAEVKKPGSSVKVSCKASDYTFNDYWVSWVRQAPGQGLEWIGEIYPNSGATNFNGKFRGRATLTVDNSASTAYMELSSLRSEDTAVYYCTREYTRDWFAYWGQGTLVTVSS
VL: DVVLTQSPLSLPVTLGQPASISCRSSQSLLDSDGNTYLYWFQQRPGQSPRRLIYLVSNLGSGVPDRFSGSGSGTDFTLKISRVEAEDVGVYYCMQPTHAPYTFGQGTKLEIK
notes: human IgG1 constant regions with L234A and L235A
Kd [6]: 0.16 nM
koff [6]: 6.5e-05 s⁻¹
kon [6]: 410000 M⁻¹ s⁻¹
Kd [7]: 5.2 nM
koff [7]: 0.0013 s⁻¹
kon [7]: 240000 M⁻¹ s⁻¹

B14: TABBY3-mIgG2b (antibody, V domains shown)
VH: GVQLVESGGGLVQPGGSRKLSCAASGFTFSSFGMHWFRQAPEKGLEWVAYISSGSSTIYYADTLKGRFTISRDNPKNTLFLQMTSLRSEDTAMYYCARDWVDYWGQGTTLTVSS
VL: DIVITQDELSNPVTSGESASISCRSSKSLLYKDGKTYLNWFLQRPGQSPQLLIYLMSTRASGVSDRFTGSGSGTDFTLEISRVKAEDVGVYYCQQPVEYPYTFGGGTKLEIK
notes: mouse IgG2b
Kd [5]: 6.6 nM

Further lines, results first:

Kd [2]: 150 nM
koff [2]: 0.25 s⁻¹
kon [2]: 1.7e+06 M⁻¹ s⁻¹
Kd [3]: 2 nM
koff [3]: 2.8e-05 s⁻¹
kon [3]: 14000 M⁻¹ s⁻¹
Kd [4]: 120 nM
koff [4]: 0.11 s⁻¹
kon [4]: 940000 M⁻¹ s⁻¹
B4: V5-2 (bispecific antibody)
chain 1: EVQLQESGPGLVKPSETLSLTCTVSGYSITSNYYWNWIRQPPGKGLEWMGYIRYDGSNNYNPSLKNRVTISRDTSKNQFSLKLSSVTAADTAVYYCARLDYWGQGTTVTVSS
chain 2: DAVMTQTPLSLSVTPGQPASISCRSSQSLENTNGNTFLNWYLQKPGQSPQLLIYRVSNRFSGVPDRFSGSGSGTDFTLKISRVEAEDVGVYYCLQVTHVPFTFGQGTKLEIK
chain 3: EVQLVQSGAEVKKPGASVKVSCKASGDTFKRYYVHWVRQAPGQGLEWMGIINPSGVSTTYAQKFQGRVTMTRDTSTSTVYMELSSLRSEDTAVYYCAEVRGSGFNYFGMDVWGQGTLVTVSS
chain 4: SYELTQPPSVSVSPGQTASITCSGDKLGDKYASWYQQKPGQSPVLVIYQDNRRPSGIPERFSGSNSGNTATLTISGTQAMDEADYYCQAWDSDTYVFGTGTKVTVL

Kd [6]: 130 nM
koff [6]: 0.074 s⁻¹
kon [6]: 570000 M⁻¹ s⁻¹
Kd [7]: 17 nM
koff [7]: 0.036 s⁻¹
kon [7]: 2.2e+06 M⁻¹ s⁻¹
B7: hu106-1 (antibody, V domains shown)
VH: EVQLVQSGAEVKKPGSSVKVSCKASGYTFTSYYIYWVRQAPGQGLEWIGNIWPGNGGTFYGEKFMGRATFTADTSTSTAYMELSSLRSEDTAVYYCARRPDYSGDDYFDYWGQGTLVTVSS
VL: NVMLTQPHSVSESPGKTVTISCKLNSGNIGSYYVHWYQQRPGSSPTTMIYRDDKRPDGVPDRFSGSIDSSSNSASLTISGLKTEDEADYYCHSYDSTITPVFGGGTKLTVL
notes: as for B11

Kd [5]: 1.9 nM
B9: TABBY6-mIgG1 (antibody, V domains shown)
VH: EVQLQQSGAELVRPGASVKLSCTASGFNIKDYYMHWVKQRPEQGLEWIGRIDPEDGDTEYAPKFQGKATMTADTSSNTAYLQLSTLTSEDTAVYYCTPYSNYVYWYFDVWGTGTTVTVSS
VL: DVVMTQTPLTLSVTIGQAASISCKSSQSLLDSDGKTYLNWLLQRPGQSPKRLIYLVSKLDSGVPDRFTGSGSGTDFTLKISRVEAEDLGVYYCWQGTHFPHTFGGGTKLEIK
notes: mouse IgG1

Kd [5]: 3.1 nM
B10: TABBY10-mIgG1 (antibody, V domains shown)
VH: QIQLVQSGPELKKPGETVKISCKASGYTFTTYGMSWVKQAPGKGLKWMGWINTYSGVPTYADDFKGRFAFSLETSASTAYLQINNLKNEDTATYFCARGNDGNYYGWFAHWGQGTLVTVSA
VL: DIQMTQSPSSLSASLGGKVTITCKASQDIHNYISWYQHKPGKGPRLVIHYTSTLQPGIPSRFSGSGSGRDYSFSISNLEPEDIATYYCLQYDNLYTFGGGTKLEIK
notes: mouse IgG1

Kd [8]: 12 nM
koff [8]: 0.026 s⁻¹
kon [8]: 2.2e+06 M⁻¹ s⁻¹
Kd [9]: 1.6 nM
koff [9]: 0.013 s⁻¹
kon [9]: 8.1e+06 M⁻¹ s⁻¹
Kd [10]: 18 nM
koff [10]: 0.022 s⁻¹
kon [10]: 1.2e+06 M⁻¹ s⁻¹
Kd [11]: 1.6 nM
B12: TABBY106-rIgG1 (antibody, V domains shown)
VH: QVQLQQSGAELAKPGTSVKLSCKASGYTFTSYYIYWVKQRPGQGLEWIGNIWPGNGGTFYGEKFMGKATFTADTSSSTAYMLLGSLTPEDSAYYFCARRPDYSGDDYFDYWGQGVLVTVSS
VL: QVVLTQPKSVSTSLKSTVKLSCKLNSGNIGSYYVHWYQQHAGRSPTTMIYRDDKRPDGVPDRFSGSIDSSSNSAFLTINNVQTEDDAIYFCHSYDSTITPVFGGGTKLTVL
notes: rat IgG1, lambda

Kd [8]: 0.32 nM
koff [8]: 0.00014 s⁻¹
kon [8]: 450000 M⁻¹ s⁻¹
Kd [9]: 6.7 nM
koff [9]: 0.0016 s⁻¹
kon [9]: 240000 M⁻¹ s⁻¹
Kd [10]: 0.36 nM
koff [10]: 0.00013 s⁻¹
kon [10]: 350000 M⁻¹ s⁻¹
Kd [11]: 6.7 nM
B13: TABBY107-rIgG1 (antibody, V domains shown)
VH: QVKLVQSGAALVKPGASVKMSCKASDYTFNDYWVSWVKQRHGESLEWIGEIYPNSGATNFNGKFRGKATLTVDNPTSTAYMELSRLTSEDSAIYYCTREYTRDWFAYWGQGTLVTVSS
VL: DVVLTQTPSILSATIGQSVSISCRSSQSLLDSDGNTYLYWFLQRPGQSPQRLIYLVSNLGSGVPNRFSGSGSGTDFTLKISGVEAEDLGIYYCMQPTHAPYTFGAGTKLELK
notes: rat IgG1, kappa
